Test results as given in US9802997B2, “Peptides and combination of peptides for use in immunotherapy against various tumors” (immatics biotechnologies GmbH, priority 2015, dated 2017).

What follows are substances tested on CD8+ T cells of healthy HLA-A*02 donors (assay: In vitro immunogenicity: in vitro T-cell priming with aAPCs loaded with peptide/MHC complexes and anti-CD28 antibody, pMHC multimer readout). Conditions: HLA-A*02 restricted peptides; percentage of positive wells among evaluable.
Assay type: cell-based, human
Excerpt: In order to obtain information regarding the immunogenicity of the TUMAPs of the present invention, the inventors performed investigations using an in vitro T-cell priming assay based on repeated stimulations of CD8+ T cells with artificial antigen presenting cells (aAPCs) loaded with peptide/MHC complexes and anti-CD28 antibody.
In order to perform in vitro stimulations by artificial antigen presenting cells loaded with peptide-MHC complex (pMHC) and anti-CD28 antibody, the inventors first isolated CD8+ T cells from fresh HLA-A*02 leukapheresis products via positive selection using CD8 microbeads (Miltenyi Biotec, Bergisch-Gladbach, Germany) of healthy donors obtained from the University clinics Mannheim, Germany, after informed consent. PBMCs and isolated CD8+ lymphocytes were incubated in T-cell medium (TCM) until use consisting of RPMI-Glutamax (Invitrogen, Karlsruhe, Germany) supplemented with 10% heat inactivated human AB serum (PAN-Biotech, Aidenbach, Germany), 100 U/ml Penicillin/100 μg/ml Streptomycin (Cambrex, Cologne, Germany), 1 mM sodium pyruvate (CC Pro, Oberdorla, Germany), 20 μg/ml Gentamycin (Cambrex). 2.5 ng/ml IL-7 (PromoCell, Heidelberg, Germany) and 10 U/ml IL-2 (Novartis Pharma, Nürnberg, Germany) were also added to the TCM at this step. Generation of pMHC/anti-CD28 coated beads, T-cell stimulations and readout was performed in a highly defined in vitro system using four different pMHC molecules per stimulation condition and 8 different pMHC molecules per readout condition.
The purified co-stimulatory mouse IgG2a anti human CD28 Ab 9.3 (Jung et al., 1987) was chemically biotinylated using Sulfo-N-hydroxysuccinimidobiotin as recommended by the manufacturer (Perbio, Bonn, Germany). Beads used were 5.6 μm diameter streptavidin coated polystyrene particles (Bangs Laboratories, Illinois, USA).
pMHC used for positive and negative control stimulations were A*0201/MLA-001 (peptide […] (SEQ ID NO. 289) from modified Melan-A/MART-1) and A*0201/DDX5-001 ([…] from DDX5, SEQ ID NO. 290), respectively.
800.000 beads/200 μl were coated in 96-well plates in the presence of 4×12.5 ng different biotin-pMHC, washed and 600 ng biotin anti-CD28 were added subsequently in a volume of 200 μl. Stimulations were initiated in 96-well plates by co-incubating 1×10^6 CD8+ T cells with 2×10^5 washed coated beads in 200 μl TCM supplemented with 5 ng/ml IL-12 (PromoCell) for 3 days at 37° C. Half of the medium was then exchanged by fresh TCM supplemented with 80 U/ml IL-2 and incubating was continued for 4 days at 37° C. This stimulation cycle was performed for a total of three times. For the pMHC multimer readout using 8 different pMHC molecules per condition, a two-dimensional combinatorial coding approach was used as previously described (Andersen et al., 2012) with minor modifications encompassing coupling to 5 different fluorochromes. Finally, multimeric analyses were performed by staining the cells with Live/dead near IR dye (Invitrogen, Karlsruhe, Germany), CD8-FITC antibody clone SK1 (BD, Heidelberg, Germany) and fluorescent pMHC multimers. For analysis, a BD LSRII SORP cytometer equipped with appropriate lasers and filters was used. Peptide specific cells were calculated as percentage of total CD8+ cells. Evaluation of multimeric analysis was done using the FlowJo software (Tree Star, Oregon, USA). In vitro priming of specific multimer+CD8+ lymphocytes was detected by comparing to negative control stimulations.

Row | Substance | Wells positive [%]
1 | 157 (ILQDGQFLV; listed as Homo sapiens) [compound 157] | + (<20% = +)
2 | 27 (GLLGKVTSV; listed as Homo sapiens) [compound 27] | + (<20% = +)
3 | 263 (SIIEYLPTL; listed as Homo sapiens) [compound 263] | + (<20% = +)

Same assay, conditions: percentage of positive donors among evaluable; HLA-A*02 healthy donors, three stimulation cycles

Row | Substance | in vitro immunogenicity: donors
4 | 288 (SLYKGLLSV; listed as Homo sapiens) [compound 288] | ++++ (>=70% = ++++)

Same assay, conditions: percentage of positive wells among evaluable; HLA-A*02 healthy donors, three stimulation cycles

Row | Substance | in vitro immunogenicity: wells
5 | 287 (KIQEILTQV; listed as Homo sapiens) [compound 287] | + (<20% = +)

These substances were tested against HLA-A*02:01 (Homo sapiens, UniProt P04439, D140Y/D185E/D98H/E176V/E277Q/G131W/G231S/I119V/I121R/I166T/I218V/L300P/L318F/N151K/N90K/P208A/P217A/Q86G/Q94H/R138H/R169H/T345S) (assay: MHC binding assay (UV-ligand exchange, beta2m ELISA)). Conditions: binding to HLA-A*02:01, β2m ELISA.
In short: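 Binding capacity is expressed as the yield of UV-mediated ligand exchange, reflecting how well each peptide stabilizes peptide-receptive MHC. Stabilized complexes are read out by anti-β2m HRP ELISA (450 nm) after streptavidin capture, with refolded MLA-001 monomer standards for quantitation.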

Row | Peptide exchange (MHC class I binding score, peptide exchange yield) | Substance
6 | +++ (≧50 = +++) | 263 (SIIEYLPTL; listed as Homo sapiens) [compound 263]
7 | ++ (≧20% = ++) | 282 (SLYALHVKA; listed as Homo sapiens) [compound 282]
8 | ++ (≧20% = ++) | 203 (FLFVDPELV; listed as Homo sapiens) [compound 203]
9 | ++++ (≧75% = ++++) | 206 (GLDAFRIFL; listed as Homo sapiens) [compound 206]
10 | +++ (≧50 = +++) | 218 (SLTGANITV; listed as Homo sapiens) [compound 218]
11 | +++ (≧50 = +++) | 204 (SEWGSPHAAVP; listed as Homo sapiens) [compound 204]
12 | +++ (≧50 = +++) | 230 (KLLNMIFSI; listed as Homo sapiens) [compound 230]
13 | ++ (≧20% = ++) | 219 (GVVPTIQKV; listed as Homo sapiens) [compound 219]
14 | ++ (≧20% = ++) | 268 (SLDKDIVAL; listed as Homo sapiens) [compound 268]
15 | +++ (≧50 = +++) | 253 (KLLAVIHEL; listed as Homo sapiens) [compound 253]
16 | +++ (≧50 = +++) | 248 (VLMQDSRLYL; listed as Homo sapiens) [compound 248]
17 | ++ (≧20% = ++) | 235 (SLLNQPKAV; listed as Homo sapiens) [compound 235]
18 | +++ (≧50 = +++) | 251 (LLWGNLPEI; listed as Homo sapiens) [compound 251]
19 | ++ (≧20% = ++) | 185 (TLYQGLPAEV; listed as Homo sapiens) [compound 185]
20 | +++ (≧50 = +++) | 213 (ILAVDGVLSV; listed as Homo sapiens) [compound 213]
21 | +++ (≧50 = +++) | 283 (ALSELLQQV; listed as Homo sapiens) [compound 283]
22 | +++ (≧50 = +++) | 182 (GLQDGFQITV; listed as Homo sapiens) [compound 182]
23 | ++ (≧20% = ++) | 215 (QIADIVTSV; listed as Homo sapiens) [compound 215]
24 | ++ (≧20% = ++) | 238 (HLQEKLQSL; listed as Homo sapiens) [compound 238]
25 | +++ (≧50 = +++) | 250 (LMQDSRLYL; listed as Homo sapiens) [compound 250]
26 | +++ (≧50 = +++) | 181 (LLWAPTAQA; listed as Homo sapiens) [compound 181]
27 | +++ (≧50 = +++) | 265 (FLLDKPQDLSI; listed as Homo sapiens) [compound 265]

Further lines, the substance ahead of its results:

Row | Substance | Peptide exchange (MHC class I binding score, peptide exchange yield)
28 | 157 (ILQDGQFLV; listed as Homo sapiens) [compound 157] | ++ (≧20% = ++)
29 | 27 (GLLGKVTSV; listed as Homo sapiens) [compound 27] | +++ (≧50 = +++)
30 | 65 (SLSEKSPEV; listed as Homo sapiens) [compound 65] | ++ (≧20% = ++)
31 | 10 (QLIEKNWLL; listed as Homo sapiens) [compound 10] | +++ (≧50 = +++)
32 | 67 (FLIENLLAA; listed as Homo sapiens) [compound 67] | +++ (≧50 = +++)
33 | 117 (TLLEGISRA; listed as Homo sapiens) [compound 117] | ++ (≧20% = ++)
34 | 23 (ALLSPLSLA; listed as Homo sapiens) [compound 23] | +++ (≧50 = +++)
35 | 145 (ALEEKLENV; listed as Homo sapiens) [compound 145] | +++ (≧50 = +++)
36 | 26 (VLDGKVAVV; listed as Homo sapiens) [compound 26] | +++ (≧50 = +++)
37 | 64 (SLYAGSNNQV; listed as Homo sapiens) [compound 64] | ++ (≧20% = ++)
38 | 12 (RLLDPKTIFL; listed as Homo sapiens) [compound 12] | +++ (≧50 = +++)
39 | 144 (FLISQTPLL; listed as Homo sapiens) [compound 144] | +++ (≧50 = +++)
40 | 115 (ILHGEVNKV; listed as Homo sapiens) [compound 115] | ++ (≧20% = ++)
41 | 174 (ALYSGDLHAA; listed as Homo sapiens) [compound 174] | ++ (≧20% = ++)
42 | 122 (SIIDTELKV; listed as Homo sapiens) [compound 122] | +++ (≧50 = +++)
43 | 138 (GIINKLVTV; listed as Homo sapiens) [compound 138] | ++ (≧20% = ++)
44 | 37 (QIVELIEKI; listed as Homo sapiens) [compound 37] | ++ (≧20% = ++)
45 | 176 (VQSGLRILL; listed as Homo sapiens) [compound 176] | ++ (≧20% = ++)
46 | 79 (TVLEEIGNRV; listed as Homo sapiens) [compound 79] | ++ (≧20% = ++)
47 | 129 (KMASKVTQV; listed as Homo sapiens) [compound 129] | ++ (≧20% = ++)
48 | 55 (HLFDKIIKI; listed as Homo sapiens) [compound 55] | +++ (≧50 = +++)
49 | 22 (LMYPYIYHV; listed as Homo sapiens) [compound 22] | +++ (≧50 = +++)
50 | 148 (YLILSSHQL; listed as Homo sapiens) [compound 148] | +++ (≧50 = +++)
51 | 16 (SLADLSLLL; listed as Homo sapiens) [compound 16] | +++ (≧50 = +++)
52 | 24 (KVWSDVTPL; listed as Homo sapiens) [compound 24] | +++ (≧50 = +++)
